Measurements: publication PMC8828469
Several values for one entry are separate records, joined by “and”; a condition that tells them apart may be missing. Equal entries are not always repeated.

Molecular target: hamster ACE2 ectodomain with human IgG1 Fc tag (hamster)
Assay: BLI

SARS-CoV-2 spike protein of Alpha (B.1.1.7), S^Alpha, recombinant trimeric ectodomain (from UniProt P0DTC2 14-1208) (domain or fragment)
kon: 111000 M⁻¹ s⁻¹ and 90700 M⁻¹ s⁻¹ and 98000 M⁻¹ s⁻¹
